Tests used:
Type in all cases: biochemical, Pantoea dispersa SB1043
[1] = target: Pantoea dispersa AlbD variant AlbD-M2, Glu25Arg (A74G)/Lys27Glu (A79G)/Ser40Gly (A118G) (Pantoea dispersa, UniProt O07822, K27E/Q25R/S40G); assay: Enzyme kinetics of AlbD-M2 with p-nitrophenyl compounds; conditions: PBS pH 7.4, room temperature, O.D405, means of triplicate
Procedure: (§1) Purification of AlbD and variants. The coding sequence of albD was amplified by PCR using forward primer 5′-[…]-3′ and reverse primer 5′-[…]-3′. The PCR product was digested by BamHI and EcoRI and fused in-frame to GST (glutathione S-transferase) gene in expression vector pGEX-2T (Pharmacia). E. coli DH5α containing the GST-AlbD fusion construct was grown in LB medium at 30° C. overnight. The cells were harvested by centrifuging at 5000 rpm for 10 minutes. The cells were resuspended in PBS buffer (pH7.4) and lysed by using a French Pressure Cell Press (Aim-Aminco) at 1100 psi. The lysate was centrifuged at 18000 rpm for 60 min at 4° C. The supernatant was loaded in the pre-equilibrated Gluthione Sepharose 4B affinity column and washed with PBS buffer (pH 7.4) to remove non-specifically bound proteins. […] The enzyme purity was determined using SDS-PAGE and stored at −80° C. in PBS buffer containing 50% glycerol. The AlbD variants were purified using the same method.
(§2) Kinetics analysis of wild type AlbD and its variants. Enzyme kinetics of AlbD and variants were determined using p-nitrophenyl compounds, the commonly used esterase substrates. The reaction was conducted in 165 μl PBS buffer (pH 7.4) containing enzyme (0.3-0.6 μM), and 3 mM p-nitrophenayl compounds at room temperature for 5 minutes and O.D405 was determined. For kinetics assay, we used the Kinetics program in the Athous spectrometer (Australia) to obtain slopes with different enzyme concentrations, and then calculated Km/Vmax and Kcat/Km by Lineweaver-Burk equation.

[2] = target: Pantoea dispersa AlbD variant AlbD-M1, Ser40Gly (A118G), FIG. 3 (Pantoea dispersa, UniProt O07822, S40G); assay: Enzyme kinetics of AlbD-M1 with p-nitrophenyl compounds; conditions: PBS pH 7.4, room temperature, O.D405, means of triplicate
Procedure: as §1, §2

[3] = target: Pantoea dispersa AlbD (albicidin detoxifying enzyme, carboxyl esterase), wild type (Pantoea dispersa, UniProt O07822); assay: Enzyme kinetics of wild type AlbD with p-nitrophenyl compounds; conditions: PBS pH 7.4, room temperature, O.D405, means of triplicate
Procedure: as §1, §2

[4] = system: CCCC(=O)Oc1ccc([N+](=O)[O-])cc1; assay: Enzyme kinetics of AlbD-M2 with p-nitrophenyl compounds; conditions: other: AlbD-M2, PBS pH 7.4, room temperature, O.D405, Lineweaver-Burk, means of triplicate
Procedure: as §1, §2

[5] = system: CC(=O)Oc1ccc([N+](=O)[O-])cc1; assay: as above; conditions: other: AlbD-M2, PBS pH 7.4, room temperature, O.D405, Lineweaver-Burk, means of triplicate
Procedure: as §1, §2

[6] = system: CCCCCC(=O)Oc1ccc([N+](=O)[O-])cc1; assay: as above; conditions: other: AlbD-M2, PBS pH 7.4, room temperature, O.D405, Lineweaver-Burk, means of triplicate
Procedure: as §1, §2

[7] = system: CCCC(=O)Oc1ccc([N+](=O)[O-])cc1; assay: Enzyme kinetics of wild type AlbD with p-nitrophenyl compounds; conditions: other: wild type AlbD, PBS pH 7.4, room temperature, O.D405, Lineweaver-Burk, means of triplicate
Procedure: as §1, §2

[8] = system: CC(=O)Oc1ccc([N+](=O)[O-])cc1; assay: as above; conditions: other: wild type AlbD, PBS pH 7.4, room temperature, O.D405, Lineweaver-Burk, means of triplicate
Procedure: as §1, §2

[9] = system: CCCCC(=O)Oc1ccc([N+](=O)[O-])cc1; assay: as above; conditions: other: wild type AlbD, PBS pH 7.4, room temperature, O.D405, Lineweaver-Burk, means of triplicate
Procedure: as §1, §2

[10] = system: CCCCCC(=O)Oc1ccc([N+](=O)[O-])cc1; assay: as above; conditions: other: wild type AlbD, PBS pH 7.4, room temperature, O.D405, Lineweaver-Burk, means of triplicate
Procedure: as §1, §2

[11] = system: CCCC(=O)Oc1ccc([N+](=O)[O-])cc1; assay: Enzyme kinetics of AlbD-M1 with p-nitrophenyl compounds; conditions: other: AlbD-M1, PBS pH 7.4, room temperature, O.D405, Lineweaver-Burk, means of triplicate
Procedure: as §1, §2

[12] = system: CC(=O)Oc1ccc([N+](=O)[O-])cc1; assay: as above; conditions: other: AlbD-M1, PBS pH 7.4, room temperature, O.D405, Lineweaver-Burk, means of triplicate
Procedure: as §1, §2

[13] = system: CCCCC(=O)Oc1ccc([N+](=O)[O-])cc1; assay: as above; conditions: other: AlbD-M1, PBS pH 7.4, room temperature, O.D405, Lineweaver-Burk, means of triplicate
Procedure: as §1, §2

[14] = system: CCCCCC(=O)Oc1ccc([N+](=O)[O-])cc1; assay: as above; conditions: other: AlbD-M1, PBS pH 7.4, room temperature, O.D405, Lineweaver-Burk, means of triplicate
Procedure: as §1, §2

Sequence of Pantoea dispersa AlbD variant AlbD-M2, Glu25Arg (A74G)/Lys27Glu (A79G)/Ser40Gly (A118G) (O07822 entry or part of it Q25R/K27E/S40G): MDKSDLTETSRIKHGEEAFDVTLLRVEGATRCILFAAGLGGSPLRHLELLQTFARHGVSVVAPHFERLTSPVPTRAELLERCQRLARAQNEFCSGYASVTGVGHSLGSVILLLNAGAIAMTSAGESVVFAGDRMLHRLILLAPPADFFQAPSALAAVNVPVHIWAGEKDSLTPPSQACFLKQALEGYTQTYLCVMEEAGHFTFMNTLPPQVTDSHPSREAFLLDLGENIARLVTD
Sequence of Pantoea dispersa AlbD variant AlbD-M1, Ser40Gly (A118G), FIG. 3 (O07822 entry or part of it S40G): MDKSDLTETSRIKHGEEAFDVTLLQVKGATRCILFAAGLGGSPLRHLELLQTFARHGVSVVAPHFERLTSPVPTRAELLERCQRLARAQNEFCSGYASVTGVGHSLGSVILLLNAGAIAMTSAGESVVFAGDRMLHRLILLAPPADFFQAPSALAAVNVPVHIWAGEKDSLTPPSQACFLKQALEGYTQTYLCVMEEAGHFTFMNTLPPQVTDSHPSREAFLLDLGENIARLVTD
Sequence of Pantoea dispersa AlbD (albicidin detoxifying enzyme, carboxyl esterase), wild type (O07822 entry or part of it): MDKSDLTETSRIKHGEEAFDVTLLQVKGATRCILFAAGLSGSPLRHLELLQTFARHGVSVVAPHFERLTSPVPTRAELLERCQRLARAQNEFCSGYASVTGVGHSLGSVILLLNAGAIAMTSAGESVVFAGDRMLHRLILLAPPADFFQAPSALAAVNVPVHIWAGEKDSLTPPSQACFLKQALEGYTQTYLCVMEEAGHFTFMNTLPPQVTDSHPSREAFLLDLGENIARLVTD

CCCCCC(=O)Oc1ccc([N+](=O)[O-])cc1 [p-nitrophenyl caproate]
Kcat [1]: 1.3 × 10^−1 S^−1
Kcat [2]: 4.2 × 10^−1 S^−1

CC(=O)Oc1ccc([N+](=O)[O-])cc1 [p-nitrophenol acetate, p-nitrophenyl acetate]
Kcat [1]: 1.5 × 10^−2 S^−1
Kcat [3]: 3.8 × 10^−3 S^−1
Kcat [2]: 9.1 × 10^−2 S^−1

Pantoea dispersa AlbD variant AlbD-M2, Glu25Arg (A74G)/Lys27Glu (A79G)/Ser40Gly (A118G) (Pantoea dispersa; K27E/Q25R/S40G)
Km [4]: 23 µM
Km [5]: 13000 µM
Km [6]: 66000 µM

CCC(=O)Oc1ccc([N+](=O)[O-])cc1 [p-nitrophenol propionate, p-nitrophenyl propionate]
Kcat [1]: 1.0 × 10^−1 S^−1
Kcat [3]: 8.3 × 10^−2 S^−1
Kcat [2]: 2.7 × 10^−1 S^−1

Pantoea dispersa AlbD (albicidin detoxifying enzyme, carboxyl esterase), wild type (Pantoea dispersa)
Km [7]: 190 µM
kcat [7]: 0.1 s⁻¹
kcat/Km [7]: 526 M⁻¹ s⁻¹
Km [8]: 68000 µM
Km [9]: 1700 µM
kcat [9]: 0.28 s⁻¹
kcat/Km [9]: 165 M⁻¹ s⁻¹
Km [10]: 2500 µM
kcat [10]: 0.11 s⁻¹
kcat/Km [10]: 55.6 M⁻¹ s⁻¹

CCCCC(=O)Oc1ccc([N+](=O)[O-])cc1 [p-nitrophenyl velerate, p-nitrophenyl valerate]
Kcat [2]: 8.8 × 10^−1 S^−1

Pantoea dispersa AlbD variant AlbD-M1, Ser40Gly (A118G), FIG. 3 (Pantoea dispersa; S40G)
Km [11]: 11 µM
Km [12]: 94000 µM
Km [13]: 400 µM
Km [14]: 250 µM

CCCC(=O)Oc1ccc([N+](=O)[O-])cc1 [p-nitrophenyl butyrate]
Kcat [1]: 2.8 × 10^−2 S^−1
Kcat [2]: 2.5 × 10^−1 S^−1

Source: patent US20070207463A1, “Method” (priority 2003, published 2007)
